{"source": "patent US6982082", "about": "(Harvard, dated 2006)", "key": {"[1]": {"target": "CypA wild type with N-terminal FLAG epitope tag, expressed from pBJ5 in Jurkat cells (UniProt P62937 1-165)", "sequence (P62937 whole entry)": "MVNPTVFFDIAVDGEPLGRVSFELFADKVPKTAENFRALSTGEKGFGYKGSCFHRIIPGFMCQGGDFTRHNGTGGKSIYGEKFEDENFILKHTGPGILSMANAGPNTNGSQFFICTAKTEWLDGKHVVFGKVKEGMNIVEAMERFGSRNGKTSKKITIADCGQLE", "assay": "cell-based or functional assay"}, "[2]": {"target": "CypAgtm (S99T, F113G, C115M) with N-terminal FLAG epitope tag, expressed from pBJ5 in Jurkat cells (UniProt P62937 1-165)", "sequence (P62937 whole entry S99T/F113G/C115M)": "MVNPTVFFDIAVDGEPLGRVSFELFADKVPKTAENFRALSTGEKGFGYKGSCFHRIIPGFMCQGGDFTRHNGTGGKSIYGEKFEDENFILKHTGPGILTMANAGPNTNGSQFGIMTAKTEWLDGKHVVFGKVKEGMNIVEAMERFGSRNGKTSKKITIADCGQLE", "assay": "cell-based or functional assay"}}}
{"binder": "XXXXXVXAXXX (head-to-tail cyclic undecapeptide made by cyclising linear peptide 11; residues as printed: CpSar (L-alpha-cyclopentylsarcosine, position 11 of CsA)-MeBmt-Abu-Sar-MeLeu-Val-MeLeu-Ala-D-Ala-MeLeu-MeLeu (N-methylated residues, D-Ala, Abu, MeBmt))", "note": "[alpha-cyclopentyl, sarcosine11-CsA (CpSar11-CsA)]", "values": [{"measurement": "IC50 in Cellular NFAT-Signalling", "setting": "[1]", "value": "> 400", "unit": "nM"}, {"measurement": "IC50 in Cellular NFAT-Signalling", "setting": "[2]", "value": 25, "unit": "nM"}]}
